Assay results published in publication PMC10235961.

Target: OleTPRN, CYP152 decarboxylase from Rothia nassimurium forming terminal (poly-unsaturated) olefins, wild type (Rothia nassimurium)
Assay: SEC

stoichiometry N: 2
Substance: OleTPRN, CYP152 decarboxylase from Rothia nassimurium forming terminal (poly-unsaturated) olefins, wild type (enzyme)
